The values below come from US8604172B2, “Humanized antibody compositions and methods for binding lysophosphatidic acid” (Lpath, Inc., priority 2009, dated 2013).

The nature of assay [1]: BIAcore 3000 kinetics, LPA immobilized on sensor chip. It counts as binding. On the procedure:
The kinetics parameters ka (association rate constant), kd (disassociation rate constant) and KD ([…] equilibrium constant) were determined for the 6 lead candidates using the BIAcore 3000 Biosensor machine. In this study, LPA was immobilized on the sensor surface and the anti-LPA mAbs were flowed in solution across the surface.
LPA was immobilized to the sensor chip at densities ranging 150 resonance units. Dilutions of each mAb were passed over the immobilized LPA and kinetic constants were obtained by nonlinear regression of association/dissociation phases. Errors are given as the standard deviation using at least three determinations in duplicate runs. Apparent affinities were determined by […].
ka=Association rate constant in M^−1s^−1kd=Dissociation rate constant in s^−1

The subject of another assay is SKOV3 tumor. The assay is described as follows: SKOV3 ovarian tumor progression in nude mice. It counts as in vivo. Particulars: with lowering of serum and ascites IL-8, IL-6, GM-CSF. As for the experimental part: Human mAb LT3015 reduced ovarian tumor SKOV3 progression and circulating cytokines in biological fluids. Nude mice were engrafted with either 10 mg/kg LT3015, vehicle, or 2 mg/kg paclitaxel (Taxol). After 56 days, mice were sacrificed and the peritoneal cavities were analyzed for tumor burden and ascites fluid accumulation. Tumors were harvested and final tumor weights were determined along with ascites volumes. Data were analyzed by ANOVA and student's t-test analysis. […] Serum and ascites levels of IL-6, IL-8, GM-CSF and VEGF were measured using ELISA kits from R&D systems, Minneapolis Minn.

For assay [2], the system named is human colon cancer cell line (COLO-205). The assay can be described thus: Xenograft CAM assay. It counts as in vivo.
Assay [3] deals with angiogenesis in Caki-1-containing plugs. The assay can be described thus: Matrigel Plug assay with Caki-1 cells, CD31 staining. The assay is classed as in vivo, nude (NCr Nu/Nu) female mice. To be noted: 10 mg/kg every 3 days; vs saline; p<0.05. On the procedure: One of the anti-LPA mAbs (B7) was tested for its ability to mitigate angiogenesis in vivo using the Matrigel Plug assay. This assay utilizes Matrigel, a proprietary mixture of tumor remnants including basement membranes derived from murine tumors. When Matrigel, or its derivate growth factor-reduced (GFR) Matrigel, is injected sc into an animal, it solidifies and forms a ‘plug.’ If pro-angiogenic factors are mixed with the matrix prior to placement, the plug will be invaded by vascular endothelial cells which eventually form blood vessels. Matrigel can be prepared either alone or mixed with recombinant growth factors (bFGF, VEGF), or tumor cells and then injected sc in the flanks of 6-week old nude (NCr Nu/Nu) female mice. In this example, Caki-1 (renal carcinoma) cells were introduced inside the Matrigel and are producing sufficient levels of VEGF and/or IL8 and LPA. Matrigel plugs were prepared containing 5×10^5 Caki-1 cells from mice treated with saline or with 10 mg/kg of anti-LPA mAb-B7, every 3 days starting 1 day prior to Matrigel implantation. Plugs were stained for endothelial CD31, followed by quantitation of the micro-vasculature formed in the plugs. Quantitation data were means+/−SEM of at least 16 fields/section from 3 plugs.

B1: LT3000: Murine anti-LPA monoclonal antibody clone B7, IgG1k, renamed Lpathomab, also known as LT3000; hybridoma 504B7.1, ATCC PTA-8420 (antibody, V domains shown)
VH: QVQLQQSGAELVRPGTSVKVSCKASGYGFINYLIEWIKQRPGQGLEWIGLINPGSDYTNYNENFKGKATLTADKSSSTAYMHLSSLTSEDSAVYFCARRFGYYGSGNYFDYWGQGTTLTVSS
VL: DVVMTQTPLSLPVSLGDQASISCTSGQSLVHINGNTYLHWYLQKPGQSPKLLIYKVSNLFSGVPDRFSGSGSGTDFTLKISRVEAEDLGVYFCSQSTHFPFTFGTGTKLEIK
Take B1: in assay [1] (apparent affinity), the Kd came to 1.6 ± 0.1 pM. In addition, in assay [1] (association rate constant, ± standard deviation), the “ka (M^−1 s^−1)” value was 6.2 ± 0.1 × 10^5 M^−1 s^−1. Further, the “kd” value in assay [1] (dissociation rate constant) was 1e-06 s⁻¹. Besides, in the assay with SKOV3 tumor, the SKOV3 tumor progression result is listed as “significantly reduced”. The tumor size entry in assay [2] was “significantly reduced”. For the same molecule, the reduction in angiogenesis result in assay [3] was “greater than 50%”.
